How the values were obtained:
Human serum albumin = target: T1, Human serum albumin (human, UniProt P02768 25-609); assay: SPR, SA on chip, VHH 300 nM, 25 C
T1 construct: bought; immobilised on a CM5 chip by amine coupling; also called Human SA
Description: (§1) Immobilization of SA to a Series S Sensor Chip CM5 surface is performed according to the manufacturer's instructions (amine coupling kit BR-1000-50). […] Human SA is obtained from Sigma Aldrich (St. Louis, MO; Cat. No. A8763). […] Mouse SA is obtained from Sigma Aldrich (Cat. No. A3559). Rat SA is obtained from Sigma Aldrich (Cat. No. A4538). Pig SA is obtained from Sigma Aldrich (Cat. No. A4414). […] Cow SA is obtained from Sigma Aldrich (Cat. No. A7030). The various SAs are covalently immobilized through free amines onto a carboxymethyl dextran-coated sensor chip CM5 targeting a surface density of average approximately 77 (58-98) RU. Excess reactive groups on the surfaces (flow cell 1 and 2) are deactivated by injecting 70 μL of 1 M ethanolamine hydrochloride-NaOH, pH 8.5, at 10 μL/min.
(§2) VHH moieties are diluted in HBS-EP+buffer (10 mM HEPES, pH 7.6, 150 mM NaCl, 3 mM EDTA, and 0.05% Polysorbate 20) at concentrations of 300 nM. 150 μL of sample is individually injected sequentially across the immobilized SAs surface and is dissociated for 600 sec at a flow rate of 50 L/min at 25 C. […] The resulting sensorgrams are analyzed using Biacore 8K Insight Evaluation Software (version 2.0.15.12933) to calculate the dissociation rate (kd).

Dog serum albumin [1] = target: T2, Dog serum albumin (dog, UniProt P49822 25-608); assay: SPR, SA on chip, VHH 300 nM, 25 C
T2 construct: bought; immobilised on a CM5 chip by amine coupling; also called Dog SA
Description: as §1, §2

Pig serum albumin [2] = target: T3, Pig serum albumin (pig, UniProt P08835 25-607); assay: SPR, SA on chip, VHH 300 nM, 25 C
T3 construct: bought; immobilised on a CM5 chip by amine coupling; also called Pig SA
Description: as §1, §2

Mouse serum albumin [3] = target: T4, Mouse serum albumin (mouse, UniProt P07724 25-608); assay: SPR, SA on chip, VHH 300 nM, 25 C
T4 construct: bought; immobilised on a CM5 chip by amine coupling; also called Mouse SA
Description: as §1, §2

Rat serum albumin [4] = target: T5, Rat serum albumin (rat, UniProt P02770 25-608); assay: SPR, SA on chip, VHH 300 nM, 25 C
T5 construct: bought; immobilised on a CM5 chip by amine coupling; also called Rat SA
Description: as §1, §2

[5] = target: T6, Cynomolgus monkey serum albumin (cynomolgus monkey, UniProt A2V9Z4 25-608); assay: SPR, SA on chip, VHH 300 nM, 25 C
T6 construct: bought; immobilised on a CM5 chip by amine coupling; also called Cyno SA
Description: as §1, §2

Cow serum albumin = target: T7, Cow serum albumin (cow, UniProt P02769 25-607); assay: SPR, SA on chip, 25 C
T7 construct: bought; immobilised on a CM5 chip by amine coupling; also called Cow SA

Dog serum albumin [6] = target: T2, Dog serum albumin; assay: SPR, SA on chip, 25 C
Pig serum albumin [7] = target: T3, Pig serum albumin; assay: SPR, SA on chip, 25 C
Mouse serum albumin [8] = target: T4, Mouse serum albumin; assay: SPR, SA on chip, 25 C
Rat serum albumin [9] = target: T5, Rat serum albumin; assay: SPR, SA on chip, 25 C
[10] = target: T6, Cynomolgus monkey serum albumin; assay: SPR, SA on chip, 25 C

Row | Binder | koff (Human serum albumin) [s⁻¹] | koff (Dog serum albumin [1]) [s⁻¹] | koff (Pig serum albumin [2]) [s⁻¹] | koff (Mouse serum albumin [3]) [s⁻¹] | koff (Rat serum albumin [4]) [s⁻¹] | koff [5] [s⁻¹] | binding result (Cow serum albumin) | binding result (Dog serum albumin [6]) | binding result (Pig serum albumin [7]) | binding result (Mouse serum albumin [8]) | binding result (Rat serum albumin [9]) | binding result [10]
1 | VHH moiety 4 (MC6.1C80.43) (VHH) VHH: EVQLLESGGGLVQPGGSLRLSCAASGRYIDETAVAWFRQAPGKGREFVAGIGGGVDITYYADSVKGRFTISRDNSKNTLYLQMNSLRPEDTAVYYCAARPGRPLITSKVADLYPYWGQGTLVTVSS | 0.00021 | 0.0017 | 0.0057 | 0.0043 | 0.0033 | 0.00053 | – | – | – | – | – | –
2 | VHH moiety 12 (MC6.1C22-Y59A) (VHH) VHH: EVQLLESGGGLVQPGGSLRLSCAASGRYIDETAVAWFRQAPGKEREFVAGIGGGVDITAYADSVKGRFTISRDNSKNTLYLQMNSLRPEDTAVYYCAARPGRPLITSKVADLYPYWGQGTLVTVSS | 0.011 | – | – | – | – | – | no binding (tested: 300 nM) | no binding (tested: 300 nM) | no binding (tested: 300 nM) | no binding (tested: 300 nM) | no binding (tested: 300 nM) | –
3 | VHH moiety 16 (MC6.1C22-Y59T) (VHH) VHH: EVQLLESGGGLVQPGGSLRLSCAASGRYIDETAVAWFRQAPGKEREFVAGIGGGVDITTYADSVKGRFTISRDNSKNTLYLQMNSLRPEDTAVYYCAARPGRPLITSKVADLYPYWGQGTLVTVSS | 0.0039 | – | – | – | – | 0.015 | no binding (tested: 300 nM) | – | no binding (tested: 300 nM) | no binding (tested: 300 nM) | no binding (tested: 300 nM) | –
4 | VHH moiety 40 (MC6.1C95.43) (VHH) VHH: EVQLLESGGGLVQPGGSLRLSCAASGRYIDETAVAWFRQAPGKGREFVAGIGGGVDITYYADSVKGRFTISRDNSKNTLYLQMNSLRPEDTAVYYCGTRPGRPLITSKVADLYPYWGQGTLVTVSS | 0.00014 | 0.0021 | 0.0058 | 0.0054 | 0.0053 | 0.00072 | – | – | – | – | – | –
5 | VHH moiety 20 (MC6.1C22-P103) (VHH, name printed without the new residue) VHH: EVQLLESGGGLVQPGGSLRLSCAASGRYIDETAVAWFRQAPGKEREFVAGIGGGVDITYYADSVKGRFTISRDNSKNTLYLQMNSLRPEDTAVYYCAARPGRELITSKVADLYPYWGQGTLVTVSS | 0.0092 | – | – | – | – | – | no binding (tested: 300 nM) | – | no binding (tested: 300 nM) | no binding (tested: 300 nM) | no binding (tested: 300 nM) | no binding (tested: 300 nM)
6 | VHH moiety 22 (MC6.1C22-P103S) (VHH) VHH: EVQLLESGGGLVQPGGSLRLSCAASGRYIDETAVAWFRQAPGKEREFVAGIGGGVDITYYADSVKGRFTISRDNSKNTLYLQMNSLRPEDTAVYYCAARPGRSLITSKVADLYPYWGQGTLVTVSS | 0.0028 | 0.0074 | 0.011 | 0.01 | 0.01 | 0.014 | – | – | – | – | – | –
7 | VHH moiety 24 (MC6.1C22-L104G) (VHH) VHH: EVQLLESGGGLVQPGGSLRLSCAASGRYIDETAVAWFRQAPGKEREFVAGIGGGVDITYYADSVKGRFTISRDNSKNTLYLQMNSLRPEDTAVYYCAARPGRPGITSKVADLYPYWGQGTLVTVSS | – | – | – | – | – | – | – | no binding (tested: 300 nM) | no binding (tested: 300 nM) | no binding (tested: 300 nM) | no binding (tested: 300 nM) | no binding (tested: 300 nM)
8 | VHH moiety 21 (MC6.1C22-P103Q) (VHH) VHH: EVQLLESGGGLVQPGGSLRLSCAASGRYIDETAVAWFRQAPGKEREFVAGIGGGVDITYYADSVKGRFTISRDNSKNTLYLQMNSLRPEDTAVYYCAARPGRQLITSKVADLYPYWGQGTLVTVSS | 0.0025 | 0.0081 | 0.01 | 0.013 | 0.011 | 0.014 | – | – | – | – | – | –
9 | VHH moiety 11 (MC6.1C22-157Q) (VHH, name printed as 157Q) VHH: EVQLLESGGGLVQPGGSLRLSCAASGRYIDETAVAWFRQAPGKEREFVAGIGGGVDQTYYADSVKGRFTISRDNSKNTLYLQMNSLRPEDTAVYYCAARPGRPLITSKVADLYPYWGQGTLVTVSS | 0.0074 | – | – | – | – | – | no binding (tested: 300 nM) | no binding (tested: 300 nM) | no binding (tested: 300 nM) | no binding (tested: 300 nM) | no binding (tested: 300 nM) | –
10 | VHH moiety 13 (MC6.1C22-Y59E) (VHH) VHH: EVQLLESGGGLVQPGGSLRLSCAASGRYIDETAVAWFRQAPGKEREFVAGIGGGVDITEYADSVKGRFTISRDNSKNTLYLQMNSLRPEDTAVYYCAARPGRPLITSKVADLYPYWGQGTLVTVSS | – | – | – | – | – | – | no binding (tested: 300 nM) | no binding (tested: 300 nM) | no binding (tested: 300 nM) | no binding (tested: 300 nM) | no binding (tested: 300 nM) | no binding (tested: 300 nM)
11 | VHH moiety 39 (MC6.1C90.43) (VHH) VHH: EVQLLESGGGLVQPGGSLRLSCAASGRYIDETAVAWFRQAPGKGREFVAGIGGGVDITYYADSVKGRFTISRDNSKNTLYLQMNSLRPEDTAVYYCGARPGRPLITSKVADLYPYWGQGTLVTVSS | 9.4e-05 | 0.0021 | 0.0065 | 0.0056 | 0.0038 | 0.0006 | – | – | – | – | – | –
12 | VHH moiety 25 (MC6.1C22-L104Q) (VHH) VHH: EVQLLESGGGLVQPGGSLRLSCAASGRYIDETAVAWFRQAPGKEREFVAGIGGGVDITYYADSVKGRFTISRDNSKNTLYLQMNSLRPEDTAVYYCAARPGRPQITSKVADLYPYWGQGTLVTVSS | – | – | – | – | – | – | no binding (tested: 300 nM) | – | – | – | – | no binding (tested: 300 nM)
13 | VHH moiety 9 (MC6.1C22-R27A) (VHH) VHH: EVQLLESGGGLVQPGGSLRLSCAASGAYIDETAVAWFRQAPGKEREFVAGIGGGVDITYYADSVKGRFTISRDNSKNTLYLQMNSLRPEDTAVYYCAARPGRPLITSKVADLYPYWGQGTLVTVSS | 0.0012 | 0.011 | 0.012 | 0.013 | 0.011 | 0.0032 | – | – | – | – | – | –
14 | VHH moiety 19 (MC6.1C22-R102S) (VHH) VHH: EVQLLESGGGLVQPGGSLRLSCAASGRYIDETAVAWFRQAPGKEREFVAGIGGGVDITYYADSVKGRFTISRDNSKNTLYLQMNSLRPEDTAVYYCAARPGSPLITSKVADLYPYWGQGTLVTVSS | 0.0045 | 0.014 | 0.014 | 0.015 | 0.015 | 0.0073 | no binding (tested: 300 nM) | – | – | – | – | –
15 | VHH moiety 23 (MC6.1C22-L104E) (VHH) VHH: EVQLLESGGGLVQPGGSLRLSCAASGRYIDETAVAWFRQAPGKEREFVAGIGGGVDITYYADSVKGRFTISRDNSKNTLYLQMNSLRPEDTAVYYCAARPGRPEITSKVADLYPYWGQGTLVTVSS | – | – | – | – | – | – | – | no binding (tested: 300 nM) | no binding (tested: 300 nM) | no binding (tested: 300 nM) | no binding (tested: 300 nM) | no binding (tested: 300 nM)
16 | VHH moiety 10 (MC6.1C22-157E) (VHH, name printed as 157E) VHH: EVQLLESGGGLVQPGGSLRLSCAASGRYIDETAVAWFRQAPGKEREFVAGIGGGVDETYYADSVKGRFTISRDNSKNTLYLQMNSLRPEDTAVYYCAARPGRPLITSKVADLYPYWGQGTLVTVSS | – | – | – | – | – | – | no binding (tested: 300 nM) | – | – | – | – | –
17 | VHH moiety 15 (MC6.1C22-Y59S) (VHH) VHH: EVQLLESGGGLVQPGGSLRLSCAASGRYIDETAVAWFRQAPGKEREFVAGIGGGVDITSYADSVKGRFTISRDNSKNTLYLQMNSLRPEDTAVYYCAARPGRPLITSKVADLYPYWGQGTLVTVSS | 0.0058 | – | – | – | – | – | no binding (tested: 300 nM) | no binding (tested: 300 nM) | no binding (tested: 300 nM) | no binding (tested: 300 nM) | no binding (tested: 300 nM) | –
18 | VHH moiety 18 (MC6.1C22-R102Q) (VHH) VHH: EVQLLESGGGLVQPGGSLRLSCAASGRYIDETAVAWFRQAPGKEREFVAGIGGGVDITYYADSVKGRFTISRDNSKNTLYLQMNSLRPEDTAVYYCAARPGQPLITSKVADLYPYWGQGTLVTVSS | 0.0076 | 0.015 | – | – | 0.014 | 0.0072 | no binding (tested: 300 nM) | – | – | – | – | –

From patent US20240316154A1 (Eli Lilly, published 2024)
